# In patent US20210206856A1 (PANDION OPERATIONS, published 2021):
# T1: recombinant mouse MAdCAM-1 (mouse, UniProt Q61826 22-365, limits assumed)
# T1 construct: also called mMAdCAM-1; mouse MAdCAM-Fc
# T1 sequence (looked up): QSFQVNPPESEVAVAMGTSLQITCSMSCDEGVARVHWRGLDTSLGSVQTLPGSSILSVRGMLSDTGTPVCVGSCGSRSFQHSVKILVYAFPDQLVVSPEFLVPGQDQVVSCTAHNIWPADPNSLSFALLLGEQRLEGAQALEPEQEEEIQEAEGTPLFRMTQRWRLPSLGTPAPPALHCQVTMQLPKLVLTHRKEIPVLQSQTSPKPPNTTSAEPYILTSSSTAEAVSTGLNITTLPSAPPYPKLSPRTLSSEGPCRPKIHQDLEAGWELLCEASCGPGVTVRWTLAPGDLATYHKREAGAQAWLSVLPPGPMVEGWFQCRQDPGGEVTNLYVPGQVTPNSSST
# T2: human MAdCAM expressed on cells (human, UniProt Q13477 19-382)
# T2 construct: whole, on cells; also called MADCAM1
# T2 sequence (looked up): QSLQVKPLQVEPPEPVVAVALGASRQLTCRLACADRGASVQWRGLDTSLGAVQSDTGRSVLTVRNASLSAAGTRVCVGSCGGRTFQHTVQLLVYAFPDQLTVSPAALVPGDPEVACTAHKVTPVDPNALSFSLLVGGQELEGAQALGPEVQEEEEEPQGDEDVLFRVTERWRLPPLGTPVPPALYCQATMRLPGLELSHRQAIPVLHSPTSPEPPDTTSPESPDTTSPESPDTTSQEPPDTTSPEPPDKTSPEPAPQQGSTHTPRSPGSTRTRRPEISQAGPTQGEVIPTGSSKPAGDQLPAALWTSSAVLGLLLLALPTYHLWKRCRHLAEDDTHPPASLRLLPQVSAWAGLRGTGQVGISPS
# T3: mouse MAdCAM expressed on cells (mouse, UniProt Q61826 22-405)
# T3 construct: whole, on cells
# T3 sequence (looked up): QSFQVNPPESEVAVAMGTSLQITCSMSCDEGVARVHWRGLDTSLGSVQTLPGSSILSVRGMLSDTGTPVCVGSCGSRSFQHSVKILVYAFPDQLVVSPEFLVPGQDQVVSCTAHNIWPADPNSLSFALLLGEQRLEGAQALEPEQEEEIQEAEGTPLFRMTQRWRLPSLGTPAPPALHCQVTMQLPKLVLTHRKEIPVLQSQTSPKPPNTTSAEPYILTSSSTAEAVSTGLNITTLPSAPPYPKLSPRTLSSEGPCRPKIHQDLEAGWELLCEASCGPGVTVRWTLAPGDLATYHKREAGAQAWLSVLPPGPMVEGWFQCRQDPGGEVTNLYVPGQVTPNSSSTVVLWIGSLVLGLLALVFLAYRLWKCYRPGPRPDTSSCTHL
# T4: CD25 (Homo sapiens (Human), UniProt P01589 22-240)
# T4 construct: also called IL-2R alpha chain
# T4 sequence: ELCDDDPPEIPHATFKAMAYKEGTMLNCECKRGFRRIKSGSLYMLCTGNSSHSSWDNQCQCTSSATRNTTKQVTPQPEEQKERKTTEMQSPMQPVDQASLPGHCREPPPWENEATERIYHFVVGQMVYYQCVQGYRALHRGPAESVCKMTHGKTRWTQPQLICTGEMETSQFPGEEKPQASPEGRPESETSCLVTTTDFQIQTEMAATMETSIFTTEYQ
# What was measured:
# [1] = target: T1, recombinant mouse MAdCAM-1; assay: Octet
# [2] = target: T2, human MAdCAM expressed on cells; assay: cell binding
# [3] = target: T3, mouse MAdCAM expressed on cells; assay: cell binding
# CD25 = target: T4, CD25; assay: ELISA, CD25 coated plate
Binder,binding result [1],binding result [2],binding result [3],EC50 (CD25) [nM]
"MAdCAM Antibody Table 1 Clone 6 (scFv, also called Antibody Clone 6) scFv: EVQLLESGGGLVQPGGSLRLSCAASGFTFNNYAFHWVRQAPGKGLEWVSRINSYGTSTTYADSVKGRFTISRDNSKNTLYLQMNSLRAEDTAVYYCAREGPVAGYWYFDLWGQGTLVTVSSGGGGSGGGGSGGGGSGGGGSDIQMTQSPSSLSASVGDRVTITCRASQIIGTNLAWYQQKPGKAPKLLIYGASSLQSGVPSRFSGSGSGTDFTLTISSLQPEDFATYYCQQSYRLPFTFGQGTKVEIK",no binding,binds,no binding,–
MAdCAM Antibody Table 1 Clone 20 (scFv) scFv: EVQLLESGGGLVQPGGSLRLSCAASGFTFDDYAMHWVRQAPGKGLEWVSYIDTSSSHLYYADSVKGRFTISRDNSKNTLYLQMNSLRAEDTAVYYCARDEAAAGYYGMDVWGQGTTVTVSSGGGGSGGGGSGGGGSGGGGSDIQMTQSPSSLSASVGDRVTITCQAGQDISNYLNWYQQKPGKAPKLLIYDASNLETGVPSRFSGSGSGTDFTLTISSLQPEDFATYYCQQTYSTPITFGQGTKLEIK,no binding,binds,no binding,–
MAdCAM Antibody Table 1 Clone 19 (scFv) scFv: EVQLLESGGGLVQPGGSLRLSCAASGFTFDDYAMHWVRQAPGKGLEWVSGISWNSGSIGYADSVKGRFTISRDNSKNTLYLQMNSLRAEDTAVYYCAKDIVAAGHYYYGMDVWGQGTTVTVSSGGGGSGGGGSGGGGSGGGGSDIQMTQSPSSLSASVGDRVTITCQASQDISNYLNWYQQKPGKAPKLLIYDASNLETGVPSRFSGSGSGTDFTLTISSLQPEDFATYYCQQSYSTPLTFGGGTKVEIK,no binding,binds,no binding,–

# The next lines start with the values.
binding result [1],binding result [2],binding result [3],EC50 (CD25) [nM],Binder
–,–,–,< 1,"IL-2 mutein SEQ ID NO: 56 (Fc fusion, also called IL-2 L118I N88D V69A, Q74P, C125S-G4Sx4-Fc) APTSSSTKKTQLQLEHLLLDLQMILNGINNYKNPKLTRMLTFKFYMPKKATELKHLQCLEEELKPLEEALNLAPSKNFHLRPRDLISDINVIVLELKGSETTFMCEYADETATIVEFINRWITFSQSIISTLTGGGGSGGGGSGGGGSGGGGSDKTHTCPPCPAPEAAGAPSVFLFPPKPKDTLMISRTPEVTCVVVDVSHEDPEVKFNWYVDGVEVHNAKTKPREEQYNSTYRVVSVLTVLHQDWLNGKEYKCKVSNKALPAPIEKTISKAKGQPREPQVYTLPPSREEMTKNQVSLTCLVKGFYPSDIAVEWESNGQPENNYKTTPPVLDSDGSFFLYSKLTVDKSRWQQGNVFSCSVMHEALHNHYTQKSLSLSPG"
no binding,binds,no binding,–,MAdCAM Antibody Table 1 Clone 23 (scFv) scFv: EVQLLESGGGLVQPGGSLRLSCAASGFTFSSYAMHWVRQAPGKGLEWVSGISGSGGSAYYADSVKGRFTISRDNSKNTLYLQMNSLRAEDTAVYYCATSQAPVDYYYYGMDVWGQGTTVTVSSGGGGSGGGGSGGGGSGGGGSDIQMTQSPSSLSASVGDRVTITCRASQSISSWLAWYQQKPGKAPKLLIYAASNLQRGVPSRFSGSGSGTDFTLTISSLQPEDFATYYCQQSYSIPITFGQGTKVEIK
